In patent publication US20240343800A1 (Merck KGaA, published 2024):

Assays:
[1] = molecular target: T1, human ROR1 (on cells) (human, UniProt Q01973 30-937); assay: cell-based or functional assay
[2] = molecular target: T1, human ROR1 (on cells); assay: cell-based or functional assay; remark: listed apart in the source
[3] = molecular target: T1, human ROR1 (on cells); assay: flow cytometry, ROR1+ MDA-MB-231 cells
Experimental: (§1) After 15-minutes of incubation at room temperature, the cells were washed twice with 200 μL of PBS by centrifugation at 500×g for 5 minutes at room temperature and resuspended in […] of 10% goat serum in BD staining buffer (BD Biosciences, Cat No: 554657). […] The plates were then covered with foil to avoid direct light and incubated for 60 minutes at 4° C. […] After incubating for 30 minutes at 4° C., the cells were washed twice with 200 μL of PBS by centrifugation at 500×g for 5 minutes at room temperature and resuspended into 100 μL of fixation buffer (BioLegend, Cat No: 420801). The samples were then analyzed on a flow cytometer for binding signal using FlowJo software. ROR and CD3 binding EC₅₀s (concentration vs mean fluorescence intensity (MFI)) for reference molecules and test bispecific TCEs were obtained using 4-parameter non-linear regression curve fitting in GraphPad Prism.

[4] = molecular target: T2, mouse ROR1 (on 4T1 cells engineered to overexpress it) (mouse, UniProt Q9Z139 30-937); assay: flow cytometry, 4T1 cells overexpressing mouse ROR1
T2 construct: whole, on cells; also called muROR1; mROR1
Experimental: as §1

[5] = molecular target: T1, human ROR1 (on cells); assay: cell-based or functional assay; remark: listed apart in the source
[6] = molecular target: T3, cynomolgus CD3 (on cynomolgus pan-T cells) (cynomolgus, UniProt Q95LI5 22-198); assay: flow cytometry, cynomolgus pan-T cells
T3 construct: whole, on cells
T3 sequence (Q95LI5 22-198): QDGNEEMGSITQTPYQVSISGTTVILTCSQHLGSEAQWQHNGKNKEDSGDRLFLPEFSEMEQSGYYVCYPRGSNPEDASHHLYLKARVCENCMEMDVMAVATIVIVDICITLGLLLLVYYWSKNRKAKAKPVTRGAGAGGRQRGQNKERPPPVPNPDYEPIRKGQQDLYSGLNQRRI
Experimental: as §1

[7] = molecular target: T1, human ROR1 (on cells); assay: cell-based or functional assay; remark: listed apart in the source
[8] = molecular target: T4, human CD3 (on Jurkat T cells or human CD8+ T cells) (human, UniProt P07766 23-207; P09693 23-182; P04234 22-171; P20963 22-164); assay: flow cytometry, human CD8+ T cells
T4 construct: Entries are printed with signal peptides; also called huCD3; CD3ε
T4 sequence (P07766 23-207 limits assumed, chain 1 of 4): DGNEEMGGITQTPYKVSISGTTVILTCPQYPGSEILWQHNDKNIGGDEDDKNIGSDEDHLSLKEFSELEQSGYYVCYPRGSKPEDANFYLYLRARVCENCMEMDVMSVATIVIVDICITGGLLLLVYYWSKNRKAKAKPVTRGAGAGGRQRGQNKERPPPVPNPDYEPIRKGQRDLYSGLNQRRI
T4 sequence (P09693 23-182 limits assumed, chain 2 of 4): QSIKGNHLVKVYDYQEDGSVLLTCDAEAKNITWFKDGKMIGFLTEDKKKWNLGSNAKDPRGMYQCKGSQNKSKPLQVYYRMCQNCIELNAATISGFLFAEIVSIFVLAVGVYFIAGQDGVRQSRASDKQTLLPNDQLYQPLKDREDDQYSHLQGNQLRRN
T4 sequence (P04234 22-171 limits assumed, chain 3 of 4): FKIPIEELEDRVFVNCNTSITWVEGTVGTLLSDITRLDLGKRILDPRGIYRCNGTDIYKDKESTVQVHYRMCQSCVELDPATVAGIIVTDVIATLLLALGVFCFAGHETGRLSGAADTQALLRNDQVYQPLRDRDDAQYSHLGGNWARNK
T4 sequence (P20963 22-164 limits assumed, chain 4 of 4): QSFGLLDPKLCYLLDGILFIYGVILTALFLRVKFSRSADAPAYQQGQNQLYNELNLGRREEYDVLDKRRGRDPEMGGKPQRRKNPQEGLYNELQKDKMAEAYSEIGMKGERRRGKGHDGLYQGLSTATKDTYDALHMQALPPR
Experimental: as §1

[9] = molecular target: T2, mouse ROR1 (on 4T1 cells engineered to …); assay: flow cytometry; reference: human ROR1 on MDA-MB-231 cells

TDCC AUC, PBMCs: MDA-MB-231-0.2 [1]: 39000
TDCC AUC, PBMCs: MDA-MB-231-0.4 [1]: 50200
TDCC AUC, PBMCs: MDA-MB-231-0.6 [1]: 57100
TDCC AUC, PBMCs: MDA-MB-231-1.3 [1]: 64800
TDCC AUC, PBMCs: MDA-MB-231-7 [1]: 74200
TDCC EC50, PBMCs: MDA-MB-231-0.2 [1]: 0.0119 nM
TDCC EC50, PBMCs: MDA-MB-231-0.4 [1]: 0.0103 nM
TDCC EC50, PBMCs: MDA-MB-231-0.6 [1]: 0.01 nM
TDCC EC50, PBMCs: MDA-MB-231-1.3 [1]: 0.00703 nM
TDCC EC50, PBMCs: MDA-MB-231-7 [1]: 0.00433 nM
TDCC Emax, PBMCs: MDA-MB-231-0.2 [1]: 40.7%
TDCC Emax, PBMCs: MDA-MB-231-0.4 [1]: 52.2%
TDCC Emax, PBMCs: MDA-MB-231-0.6 [1]: 60.2%
TDCC Emax, PBMCs: MDA-MB-231-1.3 [1]: 66.5%
TDCC Emax, PBMCs: MDA-MB-231-7 [1]: 75.8%
IFNγ release EC50, PBMCs: MDA-MB-231 [2]: 205 nM
Max IFNγ, PBMCs: MDA-MB-231 [2]: 1120 pg/mL
EC50 [3]: 0.81 nM
EC50 [4]: 2.19 nM
TDCC EC50, PBMCs: MDA-MB-231 [5]: 24.6 nM
EC50 [6]: 4.1 nM
IFNγ release AUC, PBMCs: MDA-MB-231-0.2 [7]: 2.09e+06
IFNγ release AUC, PBMCs: MDA-MB-231-0.4 [7]: 2.43e+06
IFNγ release AUC, PBMCs: MDA-MB-231-0.6 [7]: 3.15e+06
IFNγ release AUC, PBMCs: MDA-MB-231-1.3 [7]: 4.93e+06
IFNγ release AUC, PBMCs: MDA-MB-231-7 [7]: 5.16e+06
IFNγ release EC50, PBMCs: MDA-MB-231-0.2 [7]: 0.143 nM
IFNγ release EC50, PBMCs: MDA-MB-231-0.4 [7]: 0.123 nM
IFNγ release EC50, PBMCs: MDA-MB-231-0.6 [7]: 0.0803 nM
IFNγ release EC50, PBMCs: MDA-MB-231-1.3 [7]: 0.0243 nM
IFNγ release EC50, PBMCs: MDA-MB-231-7 [7]: 0.0204 nM
IFNγ release Emax, PBMCs: MDA-MB-231-0.2 [7]: 2860%
IFNγ release Emax, PBMCs: MDA-MB-231-0.4 [7]: 3050%
IFNγ release Emax, PBMCs: MDA-MB-231-0.6 [7]: 3980%
IFNγ release Emax, PBMCs: MDA-MB-231-1.3 [7]: 5260%
IFNγ release Emax, PBMCs: MDA-MB-231-7 [7]: 5420%
EC50 [8]: 2.8 nM
fold difference in apparent ROR1 binding affinity between human and mouse ROR1 [9]: ~3 fold
B1: 82H02 TCE #1 (sequence optimized 82H02 bispecific TCE in Format 1A, high ROR1 / high CD3 affinity) (bispecific antibody)
heavy 1: EVQLVESGGGLVQPGGSLKLSCAASGFTFNTYAMNWVRQASGKGLEWVGRIRSKYNNYATYYADSVKGRFTISRDDSKNTLYLQMNSLKTEDTAVYYCVRHGNFGASYVSWFAYWGQGTMVTVSSASTKGPSVFPLAPSSKSTSGGTAALGCLVKDYFPEPVTVSWNSGALTSGVHTFPAVLQSSGLYSLSSVVTVPSSSLGTQTYICNVNHKPSNTKVDKKVEPKSCDKTHTCPPCPAPEAAGGPSVFLFPPKPKDTLMISRTPEVTCVVVDVSHEDPEVKFNWYVDGVEVHNAKTKPREEQYNSTYRVVSVLTVLHQDWLNGKEYKCKVSNKALGAPIEKTISKAKGQPFRPEVHLLPPSREEMTKNQVSLTCLARGFYPKDIAVEWESNGQPENNYKTTPSRQEPSQGTTTFAVTSKLTVDKSRWQQGNVFSCSVMHEALHNHYTQKTISLSPGK
heavy 2: EIVLTQSPATLSLSPGERATLSCRASQSVSSYLAWYQQKPGQAPRLLIYDASNRATGIPARFSGSGSGTDFTLTISSLEPEDFAVYYCQQRSNWPPSTFGQGTRLEIKGGGGSGGGGSGGGGSGGGGSEVQLLESGGGLVQPGGSLRLSCAASGFTFTSYAMSWVRQAPGKGLEWVSTISGSGGGTYYTDSVKGRFTISRDNSKNTLYLQMNSLRAEDTAVYYCAQGSSIFDYWGQGTLVTVSSEPKSSDKTHTCPPCPAPEAAGGPSVFLFPPKPKDTLMISRTPEVTCVVVDVSHEDPEVKFNWYVDGVEVHNAKTKPREEQYNSTYRVVSVLTVLHQDWLNGKEYKCKVSNKALGAPIEKTISKAKGQPREPQVYTLPPPSEELALNELVTLTCLVKGFYPSDIAVEWLQGSQELPREKYLTWAPVLDSDGSFFLYSILRVAAEDWKKGDTFSCSVMHEALHNHYTQKSLDRSPGKGGGGSGGGGSGGGGSGGGGSEIVLTQSPATLSLSPGERATLSCRASQSVSSYLAWYQQKPGQAPRLLIYDASNRATGIPARFSGSGSGTDFTLTISSLEPEDFAVYYCQQRSNWPPSTFGQGTRLEIKGGGGSGGGGSGGGGSGGGGSEVQLLESGGGLVQPGGSLRLSCAASGFTFTSYAMSWVRQAPGKGLEWVSTISGSGGGTYYTDSVKGRFTISRDNSKNTLYLQMNSLRAEDTAVYYCAQGSSIFDYWGQGTLVTVSS
light: QAVVTQEPSLTVSPGGTVTLTCRSSTGAVTTSNYANWVQQKPGQAPRGLIGGTNKRAPGTPARFSGSLLGGKAALTLSGVQPEDEAEYYCALWYSNLWVFGGGTKLTVLGQPKAAPSVTLFPPSSEELQANKATLVCLISDFYPGAVTVAWKADSSPVKAGVETTTPSKQSNNKYAASSYLSLTPEQWKSHRSYSCQVTHEGSTVEKTVAPTECS
notes: also called 82H02 #1; 82H02 VL1.07x1F3.5-VH1.03
